Assay results as given in the supplement of paper PMC9112550, “Optimization of the antimicrobial peptide Bac7 by deep mutational scanning” (BMC Biology, 2022).

Tested on: Escherichia coli TOP10
Assay: shrunken log2 fold change of peptide-encoding DNA abundance (4.5 h post-induction vs induction); higher = less antimicrobial activity (less host growth inhibition)
Settings: time post-induction: 4.5 h; library: site-saturation at positions 5, 18, 19, 20
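Further: peptides expressed intracellularly from a pBAD plasmid library in pooled LB shake-flask culture, induced with 0.3% L-arabinose, DNA abundance read by NGS, three biological replicates, DESeq2 with apeglm shrinkage.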

Row | Sequence | shrunken log2 fold change
1 | RRIRMRPPRLPRPRPRPDASPRP | 2.43
2 | RRIRMRPPRLPRPRPRPDAYPRP | 0.414
3 | RRIRMRPPRLPRPRPRPDCHPRP | 1.49
4 | RRIRMRPPRLPRPRPRPDCTPRP | 2.27
5 | RRIRMRPPRLPRPRPRPDDHPRP | 0.00288
6 | RRIRMRPPRLPRPRPRPDDQPRP | -0.0167
7 | RRIRMRPPRLPRPRPRPDEHPRP | 2.21
8 | RRIRMRPPRLPRPRPRPDENPRP | 2.68
9 | RRIRMRPPRLPRPRPRPDEYPRP | 1.62
10 | RRIRMRPPRLPRPRPRPDFLPRP | 0.0612
11 | RRIRMRPPRLPRPRPRPDFVPRP | 0.00674
12 | RRIRMRPPRLPRPRPRPDICPRP | -0.01
13 | RRIRMRPPRLPRPRPRPDIQPRP | 0.118
14 | RRIRMRPPRLPRPRPRPDKCPRP | -0.0194
15 | RRIRMRPPRLPRPRPRPDKDPRP | 1.24
16 | RRIRMRPPRLPRPRPRPDKVPRP | 0.359
17 | RRIRMRPPRLPRPRPRPDLCPRP | 0.196
18 | RRIRMRPPRLPRPRPRPDLDPRP | 2.65
19 | RRIRMRPPRLPRPRPRPDMNPRP | 2.25
20 | RRIRMRPPRLPRPRPRPDMQPRP | 2
21 | RRIRMRPPRLPRPRPRPDNGPRP | -0.0901
22 | RRIRMRPPRLPRPRPRPDNMPRP | 0.0905

Row | Sequence | shrunken log2 fold change
23 | RRIRMRPPRLPRPRPRPDNSPRP | -0.071
24 | RRIRMRPPRLPRPRPRPDQSPRP | 0.0283
25 | RRIRMRPPRLPRPRPRPDRCPRP | 0.0778
26 | RRIRMRPPRLPRPRPRPDRNPRP | 1.4
27 | RRIRMRPPRLPRPRPRPDRSPRP | -0.178
28 | RRIRMRPPRLPRPRPRPDSQPRP | 1.35
29 | RRIRMRPPRLPRPRPRPDTKPRP | 0.0742
30 | RRIRMRPPRLPRPRPRPDTQPRP | 0.393
31 | RRIRMRPPRLPRPRPRPDVTPRP | 0.109
32 | RRIRMRPPRLPRPRPRPDWHPRP | -0.136
33 | RRIRMRPPRLPRPRPRPDYIPRP | -0.354
34 | RRIRMRPPRLPRPRPRPDYYPRP | -0.111
35 | RRIRMRPPRLPRPRPRPECNPRP | 0.0477
36 | RRIRMRPPRLPRPRPRPEEQPRP | -0.00184
37 | RRIRMRPPRLPRPRPRPEFHPRP | 0.0755
38 | RRIRMRPPRLPRPRPRPEGPPRP | 0.578
39 | RRIRMRPPRLPRPRPRPEGWPRP | 3.15
40 | RRIRMRPPRLPRPRPRPEHLPRP | 0.417
41 | RRIRMRPPRLPRPRPRPEHMPRP | 0.147
42 | RRIRMRPPRLPRPRPRPEICPRP | 0.00534
43 | RRIRMRPPRLPRPRPRPEIRPRP | -0.0241
44 | RRIRMRPPRLPRPRPRPEIWPRP | 1.2

Row | Sequence | shrunken log2 fold change
45 | RRIRMRPPRLPRPRPRPEKGPRP | -0.0013
46 | RRIRMRPPRLPRPRPRPEKSPRP | 2
47 | RRIRMRPPRLPRPRPRPENKPRP | 1.48
48 | RRIRMRPPRLPRPRPRPEPFPRP | 0.427
49 | RRIRMRPPRLPRPRPRPEPRPRP | 1.5
50 | RRIRMRPPRLPRPRPRPESYPRP | -0.00254
51 | RRIRMRPPRLPRPRPRPETYPRP | 0.451
52 | RRIRMRPPRLPRPRPRPEVRPRP | 0.438
53 | RRIRMRPPRLPRPRPRPEVSPRP | 0.221
54 | RRIRMRPPRLPRPRPRPEWGPRP | 0.437
55 | RRIRMRPPRLPRPRPRPEWIPRP | -0.0024
56 | RRIRMRPPRLPRPRPRPEWNPRP | 0.406
57 | RRIRMRPPRLPRPRPRPFCPPRP | 0.0248
58 | RRIRMRPPRLPRPRPRPFDIPRP | -0.126
59 | RRIRMRPPRLPRPRPRPFDPPRP | 0.0446
60 | RRIRMRPPRLPRPRPRPFFMPRP | -0.121
61 | RRIRMRPPRLPRPRPRPFFNPRP | -0.0839
62 | RRIRMRPPRLPRPRPRPFGTPRP | -0.112
63 | RRIRMRPPRLPRPRPRPFHGPRP | -0.128
64 | RRIRMRPPRLPRPRPRPFHRPRP | -0.114
65 | RRIRMRPPRLPRPRPRPFHVPRP | -0.726
66 | RRIRMRPPRLPRPRPRPFHWPRP | -0.184

Row | Sequence | shrunken log2 fold change
67 | RRIRMRPPRLPRPRPRPFIMPRP | -0.158
68 | RRIRMRPPRLPRPRPRPFISPRP | -0.4
69 | RRIRMRPPRLPRPRPRPFMFPRP | 0.0892
70 | RRIRMRPPRLPRPRPRPFNCPRP | -0.643
71 | RRIRMRPPRLPRPRPRPFNHPRP | -0.367
72 | RRIRMRPPRLPRPRPRPFPIPRP | 0.0281
73 | RRIRMRPPRLPRPRPRPFPRPRP | -0.0223
74 | RRIRMRPPRLPRPRPRPFPSPRP | -0.18
75 | RRIRMRPPRLPRPRPRPFQKPRP | -0.00623
76 | RRIRMRPPRLPRPRPRPFRGPRP | -0.205
77 | RRIRMRPPRLPRPRPRPFVHPRP | -0.178
78 | RRIRMRPPRLPRPRPRPFVMPRP | -0.0957
79 | RRIRMRPPRLPRPRPRPFWSPRP | -0.123
80 | RRIRMRPPRLPRPRPRPGAAPRP | 2.24
81 | RRIRMRPPRLPRPRPRPGAEPRP | 3.05
82 | RRIRMRPPRLPRPRPRPGAQPRP | 1.24
83 | RRIRMRPPRLPRPRPRPGAVPRP | 0.873
84 | RRIRMRPPRLPRPRPRPGDRPRP | 0.786
85 | RRIRMRPPRLPRPRPRPGEHPRP | 0.987
86 | RRIRMRPPRLPRPRPRPGENPRP | 0.00897
87 | RRIRMRPPRLPRPRPRPGEYPRP | 0.434
88 | RRIRMRPPRLPRPRPRPGGEPRP | 1

Row | Sequence | shrunken log2 fold change
89 | RRIRMRPPRLPRPRPRPGHPPRP | 0.196
90 | RRIRMRPPRLPRPRPRPGHRPRP | 1.35
91 | RRIRMRPPRLPRPRPRPGLPPRP | 0.955
92 | RRIRMRPPRLPRPRPRPGMDPRP | 0.32
93 | RRIRMRPPRLPRPRPRPGMLPRP | -0.0146
94 | RRIRMRPPRLPRPRPRPGNKPRP | -0.0821
95 | RRIRMRPPRLPRPRPRPGNMPRP | -0.331
96 | RRIRMRPPRLPRPRPRPGNSPRP | -0.616
97 | RRIRMRPPRLPRPRPRPGQTPRP | -0.00931
98 | RRIRMRPPRLPRPRPRPGRIPRP | 0.0372
99 | RRIRMRPPRLPRPRPRPGRMPRP | 0.993
100 | RRIRMRPPRLPRPRPRPGSRPRP | 0.991
101 | RRIRMRPPRLPRPRPRPGWMPRP | 0.622
102 | RRIRMRPPRLPRPRPRPGYIPRP | -0.0175
103 | RRIRMRPPRLPRPRPRPGYKPRP | -0.517
104 | RRIRMRPPRLPRPRPRPHAAPRP | 1.63
105 | RRIRMRPPRLPRPRPRPHCAPRP | 1.76
106 | RRIRMRPPRLPRPRPRPHCKPRP | 0.00214
107 | RRIRMRPPRLPRPRPRPHEPPRP | -0.0151
108 | RRIRMRPPRLPRPRPRPHFPPRP | -0.106
109 | RRIRMRPPRLPRPRPRPHFYPRP | -0.115
